Results published in the RNAGym collection of RNA variant scans (doi:10.1093/molbev/msab373).

B1: Azoarcus group I ribozyme (parent)
chain: GUGCCUUGCGCCGGGAAACCACGCAAGGGAUGGUGUCAAAUUCGGCGAAACCUAAGCGCCCGCCCGGGCGUAUGGCAACGCCGAGCCAAGCUUCGGCGCCUGCGCCGAUGAAGGUGUAGAGACUAGACGGCACCCACCUAAGGCAAACGCUAUGGUGAAGGCAUAGUCCAGGGAGUGGCGAAAGUCACACAAACCGG

Variants of: B1
Test: reverse-splicing fitness (ratio to wild type); higher = more active; in vitro selection; Mg2+ level not given
Method in brief: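 An in vitro group I ribozyme library with randomized positions was T7-transcribed and gel-purified. In triplicate, 10 pmol RNA in EPPS pH 7.5 was reacted with 50 pmoles of a 30-nt RNA substrate for 1 h at 37 °C across several added MgCl2 levels (1–48 mM), then stopped with EDTA. Products were reverse transcribed from a substrate-complementary primer, PCR-amplified and sequenced (HiSeq 4000). Fitness is a variant's read proportion after selection over that before, normalised to wild type.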

Row | Variant | reverse-splicing fitness
1 | C82G A111C A120G A145C C150G C169G U176A | 0.00837
2 | C82G A111C A120G A145C C150G C169G U176C | 0.00726
3 | C82G A111C A120G A145C C150G C169G U176G | 0.00499
4 | C82G A111C A120G A145C C150G C169U | 0.00721
5 | C82G A111C A120G A145C C150G C169U U176A | 0.00907
6 | C82G A111C A120G A145C C150G C169U U176C | 0.0124
7 | C82G A111C A120G A145C C150G C169U U176G | 0.00513
8 | C82G A111C A120G A145C C150G U176A | 0.00787
9 | C82G A111C A120G A145C C150G U176C | 0.0129
10 | C82G A111C A120G A145C C150G U176G | 0.00269
11 | C82G A111C A120G A145C C150U | 0.00925
12 | C82G A111C A120G A145C C150U C169A | 0.00816
13 | C82G A111C A120G A145C C150U C169A U176A | 0.0113
14 | C82G A111C A120G A145C C150U C169A U176C | 0.00666
15 | C82G A111C A120G A145C C150U C169A U176G | 0.00557
16 | C82G A111C A120G A145C C150U C169G | 0.00885
17 | C82G A111C A120G A145C C150U C169G U176A | 0.0216
18 | C82G A111C A120G A145C C150U C169G U176C | 0.0133
19 | C82G A111C A120G A145C C150U C169G U176G | 0.00541
20 | C82G A111C A120G A145C C150U C169U | 0.00687
21 | C82G A111C A120G A145C C150U C169U U176A | 0.0147

Row | Variant | reverse-splicing fitness
22 | C82G A111C A120G A145C C150U C169U U176C | 0.0119
23 | C82G A111C A120G A145C C150U C169U U176G | 0.0048
24 | C82G A111C A120G A145C C150U U176A | 0.0103
25 | C82G A111C A120G A145C C150U U176C | 0.0125
26 | C82G A111C A120G A145C C150U U176G | 0.00478
27 | C82G A111C A120G A145C C169A | 0.00807
28 | C82G A111C A120G A145C C169A U176A | 0.0138
29 | C82G A111C A120G A145C C169A U176C | 0.00939
30 | C82G A111C A120G A145C C169A U176G | 0.00477
31 | C82G A111C A120G A145C C169G | 0.0134
32 | C82G A111C A120G A145C C169G U176A | 0.0233
33 | C82G A111C A120G A145C C169G U176C | 0.0171
34 | C82G A111C A120G A145C C169G U176G | 0.00429
35 | C82G A111C A120G A145C C169U | 0.00967
36 | C82G A111C A120G A145C C169U U176A | 0.0164
37 | C82G A111C A120G A145C C169U U176C | 0.0154
38 | C82G A111C A120G A145C C169U U176G | 0.00406
39 | C82G A111C A120G A145C U176A | 0.0152
40 | C82G A111C A120G A145C U176C | 0.0166
41 | C82G A111C A120G A145C U176G | 0.00507
42 | C82G A111C A120G A145G | 0.014

Row | Variant | reverse-splicing fitness
43 | C82G A111C A120G A145G C150A | 0.00945
44 | C82G A111C A120G A145G C150A C169A | 0.0104
45 | C82G A111C A120G A145G C150A C169A U176A | 0.0181
46 | C82G A111C A120G A145G C150A C169A U176C | 0.0198
47 | C82G A111C A120G A145G C150A C169A U176G | 0.00723
48 | C82G A111C A120G A145G C150A C169G | 0.00949
49 | C82G A111C A120G A145G C150A C169G U176A | 0.0158
50 | C82G A111C A120G A145G C150A C169G U176C | 0.0267
51 | C82G A111C A120G A145G C150A C169G U176G | 0.0058
52 | C82G A111C A120G A145G C150A C169U | 0.00904
53 | C82G A111C A120G A145G C150A C169U U176A | 0.014
54 | C82G A111C A120G A145G C150A C169U U176C | 0.0159
55 | C82G A111C A120G A145G C150A C169U U176G | 0.00638
56 | C82G A111C A120G A145G C150A U176A | 0.00974
57 | C82G A111C A120G A145G C150A U176C | 0.0185
58 | C82G A111C A120G A145G C150A U176G | 0.007
59 | C82G A111C A120G A145G C150G | 0.00751
60 | C82G A111C A120G A145G C150G C169A | 0.009
61 | C82G A111C A120G A145G C150G C169A U176A | 0.0144
62 | C82G A111C A120G A145G C150G C169A U176C | 0.0135
63 | C82G A111C A120G A145G C150G C169A U176G | 0.00843

Row | Variant | reverse-splicing fitness
64 | C82G A111C A120G A145G C150G C169G | 0.00765
65 | C82G A111C A120G A145G C150G C169G U176A | 0.0101
66 | C82G A111C A120G A145G C150G C169G U176C | 0.0123
67 | C82G A111C A120G A145G C150G C169G U176G | 0.00591
68 | C82G A111C A120G A145G C150G C169U | 0.00859
69 | C82G A111C A120G A145G C150G C169U U176A | 0.0106
70 | C82G A111C A120G A145G C150G C169U U176C | 0.0127
71 | C82G A111C A120G A145G C150G C169U U176G | 0.00731
72 | C82G A111C A120G A145G C150G U176A | 0.00732
73 | C82G A111C A120G A145G C150G U176C | 0.0113
74 | C82G A111C A120G A145G C150G U176G | 0.00597
75 | C82G A111C A120G A145G C150U | 0.0132
76 | C82G A111C A120G A145G C150U C169A | 0.0112
77 | C82G A111C A120G A145G C150U C169A U176A | 0.0152
78 | C82G A111C A120G A145G C150U C169A U176C | 0.0147
79 | C82G A111C A120G A145G C150U C169A U176G | 0.00695
80 | C82G A111C A120G A145G C150U C169G | 0.0134
81 | C82G A111C A120G A145G C150U C169G U176A | 0.0133
82 | C82G A111C A120G A145G C150U C169G U176C | 0.0175
83 | C82G A111C A120G A145G C150U C169G U176G | 0.00501
84 | C82G A111C A120G A145G C150U C169U | 0.011
